Results taken from the supplement of paper PMC10567573.

B1: ELF3 (parent)
chain: RLVYKFGKNSSGWKEEEVLQSRN

Variants of: B1
Assay: protein stability index of a GFP-peptide fusion (GPS, HEK-293T) (PSI 1-6); higher = more stable
Conditions: c terminus: native
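Also: lentivirally expressed fusions sorted by FACS into six bins by GFP to DsRed ratio, PSI derived from sequencing read proportions per bin multiplied by bin number.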

Going from RLVYKFGKLSSGWKEEEVLQSRN [N9L] to RLVYKFGKMSSGWKEEEVLQSRN [N9M], the protein stability index rises from 2.59 to 4.34.

First: RLVYKFGKPSSGWKEEEVLQSRN [N9P]
Second: RLVYKFGKQSSGWKEEEVLQSRN [N9Q]
The protein stability index of the first is higher: 2.33 for the first, 1.87 for the second.

Compared with RLVYKFGKRSSGWKEEEVLQSRN [N9R], RLVYKFGKSSSGWKEEEVLQSRN [N9S] is lower in protein stability index: 2.91 for the first, 2.22 for the second.

Compared with RLVYKFGKTSSGWKEEEVLQSRN [N9T], RLVYKFGKVSSGWKEEEVLQSRN [N9V] is higher in protein stability index: 1.73 for the first, 2.08 for the second.

Going from RLVYKFGKYSSGWKEEEVLQSRN [N9Y] to RLVYKFGKNASGWKEEEVLQSRN [S10A], the protein stability index rises from 1.25 to 2.64.

First: RLVYKFGKNCSGWKEEEVLQSRN [S10C]
Second: RLVYKFGKNDSGWKEEEVLQSRN [S10D]
The protein stability index of the first is lower: 2.55 for the first, 3.25 for the second.

First: RLVYKFGKNESGWKEEEVLQSRN [S10E]
Second: RLVYKFGKNFSGWKEEEVLQSRN [S10F]
The protein stability index of the first is higher: 2.86 for the first, 1.34 for the second.

Going from RLVYKFGKNGSGWKEEEVLQSRN [S10G] to RLVYKFGKNHSGWKEEEVLQSRN [S10H], the protein stability index rises from 2.11 to 2.56.

First: RLVYKFGKNISGWKEEEVLQSRN [S10I]
Second: RLVYKFGKNKSGWKEEEVLQSRN [S10K]
The protein stability index of the first is lower: 1.66 for the first, 2.23 for the second.

Compared with RLVYKFGKNMSGWKEEEVLQSRN [S10M], RLVYKFGKNNSGWKEEEVLQSRN [S10N] is higher in protein stability index: 1.9 for the first, 2.1 for the second.

First: RLVYKFGKNPSGWKEEEVLQSRN [S10P]
Second: RLVYKFGKNQSGWKEEEVLQSRN [S10Q]
The protein stability index of the first is lower: 2.1 for the first, 2.51 for the second.

Compared with RLVYKFGKNRSGWKEEEVLQSRN [S10R], RLVYKFGKNTSGWKEEEVLQSRN [S10T] is higher in protein stability index: 1.18 for the first, 3.02 for the second.

Going from RLVYKFGKNYSGWKEEEVLQSRN [S10Y] to RLVYKFGKNSCGWKEEEVLQSRN [S11C], the protein stability index rises from 1.56 to 1.84.

Going from RLVYKFGKNSDGWKEEEVLQSRN [S11D] to RLVYKFGKNSEGWKEEEVLQSRN [S11E], the protein stability index falls from 3.33 to 3.01.

Going from RLVYKFGKNSFGWKEEEVLQSRN [S11F] to RLVYKFGKNSHGWKEEEVLQSRN [S11H], the protein stability index rises from 1.09 to 1.89.

First: RLVYKFGKNSIGWKEEEVLQSRN [S11I]
Second: RLVYKFGKNSKGWKEEEVLQSRN [S11K]
The protein stability index of the first is lower: 1.54 for the first, 1.6 for the second.

Compared with RLVYKFGKNSLGWKEEEVLQSRN [S11L], RLVYKFGKNSMGWKEEEVLQSRN [S11M] is lower in protein stability index: 1.78 for the first, 1.73 for the second.

First: RLVYKFGKNSNGWKEEEVLQSRN [S11N]
Second: RLVYKFGKNSPGWKEEEVLQSRN [S11P]
The protein stability index of the first is lower: 1.89 for the first, 2.79 for the second.

First: RLVYKFGKNSRGWKEEEVLQSRN [S11R]
Second: RLVYKFGKNSTGWKEEEVLQSRN [S11T]
The protein stability index of the first is lower: 2.05 for the first, 2.83 for the second.

First: RLVYKFGKNSVGWKEEEVLQSRN [S11V]
Second: RLVYKFGKNSYGWKEEEVLQSRN [S11Y]
The protein stability index of the first is higher: 3.33 for the first, 2.21 for the second.

Going from RLVYKFGKNSSAWKEEEVLQSRN [G12A] to RLVYKFGKNSSCWKEEEVLQSRN [G12C], the protein stability index falls from 2.37 to 2.05.

Going from RLVYKFGKNSSDWKEEEVLQSRN [G12D] to RLVYKFGKNSSEWKEEEVLQSRN [G12E], the protein stability index falls from 3.19 to 2.98.

Compared with RLVYKFGKNSSFWKEEEVLQSRN [G12F], RLVYKFGKNSSHWKEEEVLQSRN [G12H] is higher in protein stability index: 1.82 for the first, 2.02 for the second.

Going from RLVYKFGKNSSIWKEEEVLQSRN [G12I] to RLVYKFGKNSSKWKEEEVLQSRN [G12K], the protein stability index falls from 1.76 to 1.69.

First: RLVYKFGKNSSLWKEEEVLQSRN [G12L]
Second: RLVYKFGKNSSNWKEEEVLQSRN [G12N]
The protein stability index of the first is higher: 3.23 for the first, 1.98 for the second.

Going from RLVYKFGKNSSPWKEEEVLQSRN [G12P] to RLVYKFGKNSSQWKEEEVLQSRN [G12Q], the protein stability index falls from 2.46 to 1.95.

Compared with RLVYKFGKNSSSWKEEEVLQSRN [G12S], RLVYKFGKNSSTWKEEEVLQSRN [G12T] is lower in protein stability index: 2.5 for the first, 1.87 for the second.

Compared with RLVYKFGKNSSVWKEEEVLQSRN [G12V], RLVYKFGKNSSWWKEEEVLQSRN [G12W] is higher in protein stability index: 1.79 for the first, 1.88 for the second.

First: RLVYKFGKNSSYWKEEEVLQSRN [G12Y]
Second: RLVYKFGKNSSGAKEEEVLQSRN [W13A]
The protein stability index of the first is lower: 2.57 for the first, 4.73 for the second.

First: RLVYKFGKNSSGCKEEEVLQSRN [W13C]
Second: RLVYKFGKNSSGDKEEEVLQSRN [W13D]
The protein stability index of the first is lower: 4.09 for the first, 4.86 for the second.

First: RLVYKFGKNSSGEKEEEVLQSRN [W13E]
Second: RLVYKFGKNSSGFKEEEVLQSRN [W13F]
The protein stability index of the first is higher: 4.85 for the first, 3.03 for the second.

Going from RLVYKFGKNSSGGKEEEVLQSRN [W13G] to RLVYKFGKNSSGHKEEEVLQSRN [W13H], the protein stability index rises from 4.27 to 4.28.

Going from RLVYKFGKNSSGIKEEEVLQSRN [W13I] to RLVYKFGKNSSGKKEEEVLQSRN [W13K], the protein stability index falls from 3.91 to 3.85.

Going from RLVYKFGKNSSGLKEEEVLQSRN [W13L] to RLVYKFGKNSSGMKEEEVLQSRN [W13M], the protein stability index falls from 4.02 to 3.91.

Compared with RLVYKFGKNSSGNKEEEVLQSRN [W13N], RLVYKFGKNSSGPKEEEVLQSRN [W13P] is higher in protein stability index: 3.67 for the first, 4.45 for the second.

First: RLVYKFGKNSSGQKEEEVLQSRN [W13Q]
Second: RLVYKFGKNSSGRKEEEVLQSRN [W13R]
The protein stability index of the first is lower: 3.29 for the first, 3.74 for the second.

Compared with RLVYKFGKNSSGSKEEEVLQSRN [W13S], RLVYKFGKNSSGTKEEEVLQSRN [W13T] is higher in protein stability index: 3.78 for the first, 4.2 for the second.

Compared with RLVYKFGKNSSGVKEEEVLQSRN [W13V], RLVYKFGKNSSGYKEEEVLQSRN [W13Y] is lower in protein stability index: 3 for the first, 2.96 for the second.

Going from RLVYKFGKNSSGWAEEEVLQSRN [K14A] to RLVYKFGKNSSGWCEEEVLQSRN [K14C], the protein stability index rises from 2.02 to 2.12.

First: RLVYKFGKNSSGWDEEEVLQSRN [K14D]
Second: RLVYKFGKNSSGWEEEEVLQSRN [K14E]
The protein stability index of the first is lower: 3.25 for the first, 3.31 for the second.

Compared with RLVYKFGKNSSGWFEEEVLQSRN [K14F], RLVYKFGKNSSGWHEEEVLQSRN [K14H] is lower in protein stability index: 2.49 for the first, 1.41 for the second.

Compared with RLVYKFGKNSSGWIEEEVLQSRN [K14I], RLVYKFGKNSSGWLEEEVLQSRN [K14L] is higher in protein stability index: 2.25 for the first, 2.7 for the second.

Compared with RLVYKFGKNSSGWMEEEVLQSRN [K14M], RLVYKFGKNSSGWNEEEVLQSRN [K14N] is lower in protein stability index: 2.88 for the first, 1.92 for the second.

First: RLVYKFGKNSSGWPEEEVLQSRN [K14P]
Second: RLVYKFGKNSSGWQEEEVLQSRN [K14Q]
The protein stability index of the first is lower: 2.58 for the first, 3 for the second.

Compared with RLVYKFGKNSSGWREEEVLQSRN [K14R], RLVYKFGKNSSGWSEEEVLQSRN [K14S] is higher in protein stability index: 2.43 for the first, 2.89 for the second.

First: RLVYKFGKNSSGWTEEEVLQSRN [K14T]
Second: RLVYKFGKNSSGWVEEEVLQSRN [K14V]
The protein stability index of the first is higher: 2.32 for the first, 2.25 for the second.

First: RLVYKFGKNSSGWYEEEVLQSRN [K14Y]
Second: RLVYKFGKNSSGWKAEEVLQSRN [E15A]
The protein stability index of the first is higher: 2.28 for the first, 1.43 for the second.

Going from RLVYKFGKNSSGWKCEEVLQSRN [E15C] to RLVYKFGKNSSGWKDEEVLQSRN [E15D], the protein stability index falls from 2.49 to 1.9.

In the case of RLVYKFGKNSSGWKFEEVLQSRN [E15F], the protein stability index is reported as 3.
